Laboratory results as given in patent US20230293644A1, “ANTI-INFLAMMATORY PEPTIDES AND COMPOSITION COMPRISING THE SAME” (Gemvax & KAEL Co., Ltd., priority 2012, published 2023).

Experiments:
GAUD 153 = assay: 2D-electrophoresis protein expression in neural stem cells: GAUD 153; format: cell-based, rat; conditions: β-amyloid alone; negative control 1.0
Procedure: (§1) Protein expression level of PEP-1 treated group and untreated group was analyzed by 2D-electrophoresis technique and antibody microarray technique. Prepared 200ug by extracting proteome from the neural stem cells cultured in Experiment 1-1 of example 3. In addition, the group in which PEP-1 was not treated was used as the comparison group in the same condition.
(§2) 2D-electrophoresis was performed using 12% acrylamide gels. First gel electrophoresis was performed at Pl 4~10N, using a gel size of 8.5×7cm. After electrophoresis, it was dyed with Colloidal Coomassie Blue, and then compared expression by using PDQuest software to analyze each spot.
(§3) Difference in the expression levels of more than 1.5 times was identified using MALDI-TOF MS (Matrix Desoprtion/lionization Time of Flight Mass Spectromestry). Among these, proteins correlated with inflammation-related signaling, such as i-NOS and HMGB-1 were identified (Refer to Table 6). The changes in protein expression levels either increased or decreased by 1.5 times by amyloid-β protein, but it was confirmed that expression level was regulated close to that of negative control when PEP-1 was added (Refer to FIG. 57).
(§4) The Table 6 below is an analysis of expression levels of proteins associated with inflammation by 2D electrophoresis technique. […]

HSP 70 = assay: 2D-electrophoresis protein expression in neural stem cells: HSP 70; format: cell-based, rat; conditions: β-amyloid alone; negative control 1.0
Procedure: as §1, §2, §3, §4

Pyk2 = assay: 2D-electrophoresis protein expression in neural stem cells: Pyk2; format: cell-based, rat; conditions: β-amyloid alone; negative control 1.0
Procedure: as §1, §2, §3, §4

e-N0S = assay: 2D-electrophoresis protein expression in neural stem cells: e-N0S; format: cell-based, rat; conditions: β-amyloid alone; negative control 1.0
Procedure: as §1, §2, §3, §4

HSP 90 = assay: 2D-electrophoresis protein expression in neural stem cells: HSP 90; format: cell-based, rat; conditions: β-amyloid alone; negative control 1.0
Procedure: as §1, §2, §3, §4

MAP Kinase = assay: 2D-electrophoresis protein expression in neural stem cells: MAP Kinase; format: cell-based, rat; conditions: β-amyloid alone; negative control 1.0
Procedure: as §1, §2, §3, §4

neural stem cells = assay: Amyloid-β toxicity assessment on neural stem cells; format: cell-based, rat; conditions: 20 µM amyloid-β protein, 48 hours
Procedure: After removing the cortex from the head of an embryonic rat that had been pregnant for 13 days, it was cultured for a week with Basic Fibroblast Growth Factor (bFGF) to obtain the neural stem cells. To analyze the effects of the amyloid-β protein on the neural stem cells, the pre-oligomerized amyloid-β protein of concentrations 0 to 40 µM was treated on neural stem cells for 48 hours, then CCK-8 assay, BrdU, and TUNEL assay were used for cytotoxicity assessment (refer from BA Yankner et al, 1990 and KN Dahlgren et al, 2002).

HHGB1 = assay: 2D-electrophoresis protein expression in neural stem cells: HHGB1; format: cell-based, rat; conditions: β-amyloid alone; negative control 1.0
Procedure: as §1, §2, §3, §4

i-N0S = assay: 2D-electrophoresis protein expression in neural stem cells: i-N0S; format: cell-based, rat; conditions: β-amyloid alone; negative control 1.0
Procedure: as §1, §2, §3, §4

TNF-α = TNF-α ELISA, LPS-stimulated PBMC-derived monocytes (Example 1); format: cell-based, human; conditions: LPS 10 ng/ml 2 hrs, starved 1 hr, 4 uM for 2 hrs; cell culture medium
Procedure: PBMC (peripheral blood mononuclear cell) was separated from the blood samples (50ml) collected from healthy subjects using Ficoll-PaqueTM PLUS (GE Healthcare Life Sciences, Piscataway, NJ, USA). PBMCs were then enriched in complete RPMI 1640 medium containing 20% of human serum, followed by transferring to 100 mm polystyrene cell culture plate coated with human serum for 30 mins. […]
To see the effect of PEP-1 on TNF-α level in terms of protein expression level, ELISA (enzyme linked immunosorbent assay) was performed. […] After culturing, cell soup was collected, and the amount of TNF-α was measured using ELISA kit (R&D, Minneapolis, MN, USA) as follows:
TNF measurement uses sandwich ELISA method. […] Again, plate was washed, and avidin/biotin was added for measuring the absorbance. TNF-α level of each sample was quantified using the standard graph calculated from the absorbance of standard solution.
PBMC-derived monocytes were stimulated with endotoxin LPS (10 ng/ml) for 2 hrs, starved for 1 hr using OPTI-MEM, and then 4 uM of FITC, FITC-TAT, PEP 1-FITC and FITC-PEP 1 were treated for 2 hrs. After incubation, TNF-α level was measured with cell culture medium using ELISA.

Row | Substance | GAUD 153 expression, 20ug β -amyloid treated group (fold) (GAUD 153) | HSP 70 expression, 20ug β -amyloid treated group (fold) (HSP 70) | Pyk2 expression, 20ug β -amyloid treated group (fold) (Pyk2) | e-N0S expression, 20ug β -amyloid treated group (fold) (e-N0S) | HSP 90 expression, 20ug β -amyloid treated group (fold) (HSP 90) | MAP Kinase expression, 20ug β -amyloid treated group (fold) (MAP Kinase) | cell survival (neural stem cells) [%] | HHGB1 expression, 20ug β -amyloid treated group (fold) (HHGB1) | i-N0S expression, 20ug β -amyloid treated group (fold) (i-N0S) | TNF-α level (TNF-α) [ng/mL]
1 | amyloid-β protein | 1.6 | -2.3 | 2.0 | 1.9 | -1.8 | 2.2 | 60 | -1.5 | 1.9 | –
2 | Fluorescein Isothiocyanate [FITC] | – | – | – | – | – | – | – | – | – | 6.2
